Measured values from patent US20170362301A1 (Janssen / Centocor, published 2017).

Experiments:
[1] = molecular target: T1, EGFR (form in the assay not stated) (human, UniProt P00533 25-645, limits assumed); assay: ELISA, NEM conjugate 10 nM
[2] = molecular target: T1, EGFR (form in the assay not stated); assay: ELISA, NEM conjugate 100 nM
[3] = molecular target: T1, EGFR (form in the assay not stated); assay: ELISA, NEM conjugate 500 nM

Binder	binding ratio vs parent P54AR4-83v2 [1] [ratio]	binding ratio vs parent P54AR4-83v2 [2] [ratio]	binding ratio vs parent P54AR4-83v2 [3] [ratio]
P54AR4-83v2 K62C, NEM conjugate (designed binder, NEM on Cys 62, His-tagged) LPAPKNLVVSEVTEDSARLSWDDPWAFYESFLIQYQESEKVGEAIVLTVPGSERSYDLTGLCPGTEYTVSIYGVHNVYKDTNMRGLPLSAIFTT	0.64	0.73	0.61
P54AR4-83v2 N76C, NEM conjugate (designed binder, NEM on Cys 76, His-tagged) LPAPKNLVVSEVTEDSARLSWDDPWAFYESFLIQYQESEKVGEAIVLTVPGSERSYDLTGLKPGTEYTVSIYGVHCVYKDTNMRGLPLSAIFTT	0.75	0.97	0.91
P54AR4-83v2 R84C, NEM conjugate (designed binder, NEM on Cys 84, His-tagged) LPAPKNLVVSEVTEDSARLSWDDPWAFYESFLIQYQESEKVGEAIVLTVPGSERSYDLTGLKPGTEYTVSIYGVHNVYKDTNMCGLPLSAIFTT	0.91	1.04	0.98
P54AR4-83v2 S38C, NEM conjugate (designed binder, NEM on Cys 38, His-tagged) LPAPKNLVVSEVTEDSARLSWDDPWAFYESFLIQYQECEKVGEAIVLTVPGSERSYDLTGLKPGTEYTVSIYGVHNVYKDTNMRGLPLSAIFTT	0.8	0.93	0.82
P54AR4-83v2 P63C, NEM conjugate (designed binder, NEM on Cys 63, His-tagged) LPAPKNLVVSEVTEDSARLSWDDPWAFYESFLIQYQESEKVGEAIVLTVPGSERSYDLTGLKCGTEYTVSIYGVHNVYKDTNMRGLPLSAIFTT	0.95	1.02	0.92
P54AR4-83v2 P50C, NEM conjugate (designed binder, NEM on Cys 50, His-tagged) LPAPKNLVVSEVTEDSARLSWDDPWAFYESFLIQYQESEKVGEAIVLTVCGSERSYDLTGLKPGTEYTVSIYGVHNVYKDTNMRGLPLSAIFTT	0.91	1.05	0.97
P54AR4-83v2 P4C, NEM conjugate (designed binder, NEM on Cys 4, His-tagged) LPACKNLVVSEVTEDSARLSWDDPWAFYESFLIQYQESEKVGEAIVLTVPGSERSYDLTGLKPGTEYTVSIYGVHNVYKDTNMRGLPLSAIFTT	0.02	0.02	0.12
P54AR4-83v2 Q34C, NEM conjugate (designed binder, NEM on Cys 34, His-tagged) LPAPKNLVVSEVTEDSARLSWDDPWAFYESFLICYQESEKVGEAIVLTVPGSERSYDLTGLKPGTEYTVSIYGVHNVYKDTNMRGLPLSAIFTT	0.89	1.03	0.94
P54AR4-83v2 P87C, NEM conjugate (designed binder, NEM on Cys 87, His-tagged) LPAPKNLVVSEVTEDSARLSWDDPWAFYESFLIQYQESEKVGEAIVLTVPGSERSYDLTGLKPGTEYTVSIYGVHNVYKDTNMRGLCLSAIFTT	0.73	0.93	0.91
P54AR4-83v2 P24C, NEM conjugate (designed binder, NEM on Cys 24, His-tagged) LPAPKNLVVSEVTEDSARLSWDDCWAFYESFLIQYQESEKVGEAIVLTVPGSERSYDLTGLKPGTEYTVSIYGVHNVYKDTNMRGLPLSAIFTT	0.45	0.85	0.83
P54AR4-83v2 N82C, NEM conjugate (designed binder, NEM on Cys 82, His-tagged) LPAPKNLVVSEVTEDSARLSWDDPWAFYESFLIQYQESEKVGEAIVLTVPGSERSYDLTGLKPGTEYTVSIYGVHNVYKDTCMRGLPLSAIFTT	0.56	0.97	0.96
P54AR4-83v2 L86C, NEM conjugate (designed binder, NEM on Cys 86, His-tagged) LPAPKNLVVSEVTEDSARLSWDDPWAFYESFLIQYQESEKVGEAIVLTVPGSERSYDLTGLKPGTEYTVSIYGVHNVYKDTNMRGCPLSAIFTT	0.77	0.96	0.92
P54AR4-83v2 P2C, NEM conjugate (designed binder, NEM on Cys 2, His-tagged) LCAPKNLVVSEVTEDSARLSWDDPWAFYESFLIQYQESEKVGEAIVLTVPGSERSYDLTGLKPGTEYTVSIYGVHNVYKDTNMRGLPLSAIFTT	0	0	0.01
P54AR4-83v2 L7C, NEM conjugate (designed binder, NEM on Cys 7, His-tagged) LPAPKNCVVSEVTEDSARLSWDDPWAFYESFLIQYQESEKVGEAIVLTVPGSERSYDLTGLKPGTEYTVSIYGVHNVYKDTNMRGLPLSAIFTT	0.35	1	0.9
P54AR4-83v2 N6C, NEM conjugate (designed binder, NEM on Cys 6, His-tagged) LPAPKCLVVSEVTEDSARLSWDDPWAFYESFLIQYQESEKVGEAIVLTVPGSERSYDLTGLKPGTEYTVSIYGVHNVYKDTNMRGLPLSAIFTT	0.76	1.01	0.89
P54AR4-83v2 S30C, NEM conjugate (designed binder, NEM on Cys 30, His-tagged) LPAPKNLVVSEVTEDSARLSWDDPWAFYECFLIQYQESEKVGEAIVLTVPGSERSYDLTGLKPGTEYTVSIYGVHNVYKDTNMRGLPLSAIFTT	0.9	1.02	0.9
P54AR4-83v2 L88C, NEM conjugate (designed binder, NEM on Cys 88, His-tagged) LPAPKNLVVSEVTEDSARLSWDDPWAFYESFLIQYQESEKVGEAIVLTVPGSERSYDLTGLKPGTEYTVSIYGVHNVYKDTNMRGLPCSAIFTT	0.95	1.03	0.97
P54AR4-83v2 S10C, NEM conjugate (designed binder, NEM on Cys 10, His-tagged) LPAPKNLVVCEVTEDSARLSWDDPWAFYESFLIQYQESEKVGEAIVLTVPGSERSYDLTGLKPGTEYTVSIYGVHNVYKDTNMRGLPLSAIFTT	0.83	1.07	0.96
P54AR4-83v2 R54C, NEM conjugate (designed binder, NEM on Cys 54, His-tagged) LPAPKNLVVSEVTEDSARLSWDDPWAFYESFLIQYQESEKVGEAIVLTVPGSECSYDLTGLKPGTEYTVSIYGVHNVYKDTNMRGLPLSAIFTT	0.89	1.01	0.93
P54AR4-83v2 S16C, NEM conjugate (designed binder, NEM on Cys 16, His-tagged) LPAPKNLVVSEVTEDCARLSWDDPWAFYESFLIQYQESEKVGEAIVLTVPGSERSYDLTGLKPGTEYTVSIYGVHNVYKDTNMRGLPLSAIFTT	0.88	1.05	0.63
P54AR4-83v2 L47C, NEM conjugate (designed binder, NEM on Cys 47, His-tagged) LPAPKNLVVSEVTEDSARLSWDDPWAFYESFLIQYQESEKVGEAIVCTVPGSERSYDLTGLKPGTEYTVSIYGVHNVYKDTNMRGLPLSAIFTT	0.92	1.02	0.91
P54AR4-83v2 L32C, NEM conjugate (designed binder, NEM on Cys 32, His-tagged) LPAPKNLVVSEVTEDSARLSWDDPWAFYESFCIQYQESEKVGEAIVLTVPGSERSYDLTGLKPGTEYTVSIYGVHNVYKDTNMRGLPLSAIFTT	0.87	1.01	0.91
P54AR4-83v2 M83C, NEM conjugate (designed binder, NEM on Cys 83, His-tagged) LPAPKNLVVSEVTEDSARLSWDDPWAFYESFLIQYQESEKVGEAIVLTVPGSERSYDLTGLKPGTEYTVSIYGVHNVYKDTNCRGLPLSAIFTT	0.07	0.04	0.24
P54AR4-83v2 R18C, NEM conjugate (designed binder, NEM on Cys 18, His-tagged) LPAPKNLVVSEVTEDSACLSWDDPWAFYESFLIQYQESEKVGEAIVLTVPGSERSYDLTGLKPGTEYTVSIYGVHNVYKDTNMRGLPLSAIFTT	0.86	1.05	0.94
P54AR4-83v2 S20C, NEM conjugate (designed binder, NEM on Cys 20, His-tagged) LPAPKNLVVSEVTEDSARLCWDDPWAFYESFLIQYQESEKVGEAIVLTVPGSERSYDLTGLKPGTEYTVSIYGVHNVYKDTNMRGLPLSAIFTT	0.81	1.05	0.91
P54AR4-83v2 K79C, NEM conjugate (designed binder, NEM on Cys 79, His-tagged) LPAPKNLVVSEVTEDSARLSWDDPWAFYESFLIQYQESEKVGEAIVLTVPGSERSYDLTGLKPGTEYTVSIYGVHNVYCDTNMRGLPLSAIFTT	0.9	0.99	0.93
